Data as given in patent US8642834B2, “Methods for the identification of agents that inhibit mesenchymal-like tumor cells or their formation” (OSI Pharmaceuticals, LLC, priority 2009, dated 2014).

Assays:
Assay type in all cases: cell-based, human
CFPAC1 cells [1] = assay: Transcriptional changes to EMT genes, qPCR
Experimental: (§1) The CFPAC1 cell line was cultured in DMEM media (Gibco #11960) supplemented with 10% FBS (Sigma), 2 mM L Glutamine (Gibco), at 37° C., 5% CO2. For 7 day treatments, cells were seeded on tissue culture plastic in complete growth media and allowed to attach overnight at cell densities that would provide approximately 60-80% confluence at end of experiment. Ligand and/or inhibitor was added the following day (Day 0) in complete growth media and incubated at 37° C., 5% CO2. Ligand source and concentrations used are as follows: [1] From R&D systems, SDF-1α (stromal derived factor-1 alpha) at 100 ng/ml, TRANCE (TNF-related activation induced cytokine) at 50 ng/ml, FGF1 (fibroblast growth factor acidic) at 10 ng/ml, FGF2 (fibroblast growth factor basic) at 10 ng/ml, BMP4 (bone morphogenetic protein 4) at 100 ng/ml, BMP7 (bone morphogenetic protein 7) at 100 ng/ml, IGF2 (insulin-like growth factor 2) at 100 ng/ml, OSM (Oncostatin M) at 100 ng/ml, NRG1 (Neuregulin-1) at 50 ng/ml, PDGFaa (Platelet derived growth factor a) at 50 ng/ml, PDGFbb (platelet derive growth factor b) at 30 ng/ml, Ang2 (Angiopoeitin 2) at 400 ng/ml, amphiregulin at 100 ng/ml, HMGB 1 (Human high-mobility group box 1 protein) at 50 ng/ml; [2] From Genscript, LIF (Leukemia inhibitory factor) at 20 ng/ml, GM-CSF (Granulocyte macrophage colony stimulating factor) at 25 ng/ml, M-CSF (Macrophage colony stimulating factor) at 50 ng/ml; [3] From Anaspec, PAR1 (Protease activated receptor 1 agonist) at 100 μM; PAR2 (Protease activated receptor 2 agonist; peptide SLIGKV-NH2, Cat. No. 60217-1) at 100 μM; PAR4 (Protease activated receptor […] agonist; peptide AYPGKF-NH2, Cat. No. 60218-1) at 100 μM; [4] From Peprotech, HGF (Hepatocyte Growth Factor) at 100 ng/ml; IL-31 (Interleukin-31) at 50 ng/ml, IL-33 (Interleukin-33) at 50 ng/ml, IL1-a (Interleukin-1 alpha) at 10 ng/ml, CTGF (Connective tissue growth factor) at 20 ng/ml, WISP1 (Wnt-1 inducible signaling pathway protein) at 20 ng/ml, PTHrP ([…] hormone-related protein) at 50 ng/ml, MCP1 (monocyte chemotactic protein-1) at 50 ng/ml; and [5] from Sigma, Fulvestrant at 1 μM. Fresh medium containing ligand and/or inhibitor was added 3-4 days after initial dose, and at Day 7 cells were harvested for western blot analysis.
Cells were plated and treated with ligand for one or 7 days. At the time of harvest, cells were trypsinized and snap frozen for later use. Total RNA was isolated using RNAqueous-4 PCR Kit (Ambion, AM1914). For qPCR on tumor material, the tumor samples were homogenized using a small tissue homogenizer (Ultra-Turrax T8 from IKA-Werke) in 175ul RNA lysis buffer. Homogenization was for 1 minute on ice. RNA was isolated using the SV Total RNA Isolation System (Promega Cat #Z3100) according to the manufactures instructions. Samples were DNase treated using the Turbo DNA-Free kit (Ambion, AM1907) and reverse transcribed using Superscript III (Invitrogen, 18080-044) for qPCR analysis. Taqman primers and Locked-Nucleic Acid probes were designed using ProbeFinder software (Universal Probe library, Roche). For mRNA analysis, real time PCR was performed using the ABI 7900HT series PCR machine. Thermocycle conditions were as follows: 50° C. for 2 minutes, 95° C. for 10 minutes, 95° C. for 15 seconds, 50° C. for 10 seconds, 60° C. for 1 minute. Data was collected over 45 cycles and then normalized to GAPDH and further normalized to the untreated control sample.

CFPAC1 cells [2] = assay: Doubling time after ligand treatment; details: after 7 day ligand treatment, versus untreated
Experimental: Cells were plated and treated with ligand for 7 days. On day 7, cells were counted and re-plated on 6 cm cell culture dishes. On days 3, 5, 7, 10 and 12, cells were trypsinized and counted to determine the total number of cells in the dish, in duplicate. Doubling time was calculated using the multiple time point method on the website www.doubling-time.com.

CFPAC-1 cells = assay: Induction of EMT by growth factors and cytokines, E-cadherin and vimentin immunoblotting; details: CFPAC-1 cells treated 7 days with ligand
Experimental: as §1
Cells were harvested by washing once with PBS, and lysing on ice for 10 minutes with scraping (using a Cell Lifter, Corning Inc. #3008) in ice cold RIPA buffer (Sigma R0278) containing Protease inhibitor (Sigma P8340), Phosphatase inhibitors (Sigma P2850, P5726) and 200 μM Sodium Vanadate. Supernatents were micro-centrifuged at max speed, 4° C. for 10 minutes. Protein content was quantitated using the BCA method (Pierce #23225) and samples were normalized to total protein in Laemli buffer and heated at 100° C. for 10 minutes. SDS PAGE was run using a Bis-Tris gel system (Invitrogen NuPAGE) with MOPS buffer (Invitrogen NP0001), transferred onto nitrocellulose using the iBLOT system (Invitrogen) and blocked in PBS-T (0.1% Tween 20), 5% non-fat milk or BSA in guidance with primary Ab supplier requirements. All primary antibodies were incubated overnight at 4° C. in PBS-T (0.1% Tween 20) in either 5% non-fat milk or BSA, diluted to the following working dilutions: anti E Cadherin (Santa Cruz #sc-21791) 1:500 dilution; anti Vimentin (BD Biosciences #550513) 1:2000 dilution;); anti GAPDH HRP conjugate (Santa Cruz sc-25778) 1:1000 dilution; anti β-Actin (Sigma, A5441) 1:10,000 dilution. […]

B1: OSM: Oncostatin M from R&D systems, used at 100 ng/ml (protein, UniProt P13725 26-221, looked up)
Oncostatin-M: AAIGSCSKEYRVLLGQLQKQTDLMQDTSRLLDPYIRIQGLDVPKLREHCRERPGAFPSEETLRGLGRRGFLQTLNATLGCVLHRLADLEQRLPKAQDLERSGLNIEDLEKLQMARPNILGLRNNIYCMAQLLDNSDTAEPTKAGRGASQPPTPTPASDAFQRKLEGCRFLHGYHRFMHSVGRVFSKWGESPNRSRR
With B1 the “ACTN1 mRNA fold change” value (CFPAC1 cells [1]; ligand 1 Day) was “NC (Only changes greater than 3 fold are reported. NC indicates no change.)”, the “CDH1 mRNA fold change” value (CFPAC1 cells [1]; ligand 1 Day) was “NC (Only changes greater than 3 fold are reported. NC indicates no change.)” and the “CDH2 mRNA fold change” value (CFPAC1 cells [1]; ligand 1 Day) was “NC (Only changes greater than 3 fold are reported. NC indicates no change.)”. The “ITGB3 mRNA fold change” value (CFPAC1 cells [1]; ligand 1 Day) was 31.39 fold, the “MMP7 mRNA fold change” value (CFPAC1 cells [1]; ligand 1 Day) was “NC (Only changes greater than 3 fold are reported. NC indicates no change.)” and the “MTA3 mRNA fold change” value (CFPAC1 cells [1]; ligand 1 Day) was “NC (Only changes greater than 3 fold are reported. NC indicates no change.)”. The “PLAUR mRNA fold change” value (CFPAC1 cells [1]; ligand 1 Day) was “NC (Only changes greater than 3 fold are reported. NC indicates no change.)”, the “SNAI1 mRNA fold change” value (CFPAC1 cells [1]; ligand 1 Day) was “NC (Only changes greater than 3 fold are reported. NC indicates no change.)” and the “SNAI2 mRNA fold change” value (CFPAC1 cells [1]; ligand 1 Day) was “NC (Only changes greater than 3 fold are reported. NC indicates no change.)”. For the same molecule, the “SPARC mRNA fold change” value (CFPAC1 cells [1]; ligand 1 Day) was “NC (Only changes greater than 3 fold are reported. NC indicates no change.)”, the “TWIST1 mRNA fold change” value (CFPAC1 cells [1]; ligand 1 Day) was “NC (Only changes greater than 3 fold are reported. NC indicates no change.)” and the “VIM mRNA fold change” value (CFPAC1 cells [1]; ligand 1 Day) was “NC (Only changes greater than 3 fold are reported. NC indicates no change.)”. For the same molecule, the “ZEB1 mRNA fold change” value (CFPAC1 cells [1]; ligand 1 Day) was “NC (Only changes greater than 3 fold are reported. NC indicates no change.)”, the “ZEB2 mRNA fold change” value (CFPAC1 cells [1]; ligand 1 Day) was 3.52 fold and the “ACTN1 mRNA fold change” value (CFPAC1 cells [1]; ligand 7 Day) was “NC (Only changes greater than 3 fold are reported. NC indicates no change.)”. The “CDH1 mRNA fold change” value (CFPAC1 cells [1]; ligand 7 Day) was −3.06 fold, the “CDH2 mRNA fold change” value (CFPAC1 cells [1]; ligand 7 Day) was “NC (Only changes greater than 3 fold are reported. NC indicates no change.)” and the “ITGB3 mRNA fold change” value (CFPAC1 cells [1]; ligand 7 Day) was 106.2 fold. For the same molecule, the “MMP7 mRNA fold change” value (CFPAC1 cells [1]; ligand 7 Day) was “NC (Only changes greater than 3 fold are reported. NC indicates no change.)”, the “MTA3 mRNA fold change” value (CFPAC1 cells [1]; ligand 7 Day) was “NC (Only changes greater than 3 fold are reported. NC indicates no change.)” and the “PLAUR mRNA fold change” value (CFPAC1 cells [1]; ligand 7 Day) was “NC (Only changes greater than 3 fold are reported. NC indicates no change.)”. The “SNAI1 mRNA fold change” value (CFPAC1 cells [1]; ligand 7 Day) was “NC (Only changes greater than 3 fold are reported. NC indicates no change.)”, the “SNAI2 mRNA fold change” value (CFPAC1 cells [1]; ligand 7 Day) was “NC (Only changes greater than 3 fold are reported. NC indicates no change.)” and the “SPARC mRNA fold change” value (CFPAC1 cells [1]; ligand 7 Day) was −33 fold. For the same molecule, the “TWIST1 mRNA fold change” value (CFPAC1 cells [1]; ligand 7 Day) was 3.3 fold, the “VIM mRNA fold change” value (CFPAC1 cells [1]; ligand 7 Day) was “NC (Only changes greater than 3 fold are reported. NC indicates no change.)” and the “ZEB1 mRNA fold change” value (CFPAC1 cells [1]; ligand 7 Day) was 3.00 fold. For the same molecule, the “ZEB2 mRNA fold change” value (CFPAC1 cells [1]; ligand 7 Day) was 13.7 fold, the “Increase of doubling time” value (CFPAC1 cells [2]) was “approximately 50%” and the “Induction of EMT (E-cadherin down, vimentin up)” value (CFPAC-1 cells) was “most complete EMT”.
